Patent US20220064329A1 (Novo Nordisk, published 2022)
Residue numbers refer to the chain shown, from its start. In names and notes the source's numbering stands.

T1: recombinant human activated Factor VII (FVIIa) (human, UniProt P08709 61-212; P08709 213-466, ten glutamate residues of the Gla domain may be gamma-carboxylated)
T1 construct: chains tethered by a disulfide bond; also called Factor VIIa; rFVIIa
T1 sequence 1: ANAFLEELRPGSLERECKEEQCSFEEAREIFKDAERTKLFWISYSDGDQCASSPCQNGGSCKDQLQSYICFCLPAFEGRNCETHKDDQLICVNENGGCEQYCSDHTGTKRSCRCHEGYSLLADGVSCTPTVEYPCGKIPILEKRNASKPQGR
T1 sequence 2: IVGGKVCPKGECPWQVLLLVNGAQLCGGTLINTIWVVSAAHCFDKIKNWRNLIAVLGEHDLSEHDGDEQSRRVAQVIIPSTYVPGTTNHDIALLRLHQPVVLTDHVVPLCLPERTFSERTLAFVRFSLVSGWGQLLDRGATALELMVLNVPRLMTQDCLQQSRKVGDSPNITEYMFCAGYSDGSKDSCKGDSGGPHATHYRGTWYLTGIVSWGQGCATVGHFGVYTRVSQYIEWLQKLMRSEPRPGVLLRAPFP

B1: VH SEQ ID NO 522 / VL SEQ ID NO 318 (antibody, IgG4, V domains shown)
VH: QVQLQESGPGLVEPSQTLSLTCTVSGYSISSDSAWSWIRQPPGKGLEWIGYIQYSGSTNYNPSLKSRVTISRDTSKNQFSLKLSSVTAADTAVYYCARSVNYYGNSFAVGPWGQGTLVTVSS
VL: EIVLTQSPATLSLSPGERATLSCRASQGISDYLHWYQQKPGEAPRLLIKYTSQPATGIPARFSGSGSGTDFTLTISSLEPEDFAVYYCQNGHSFPLTFGQGTKLEIK
notes: humanized 11F2; IgG4 S228P/kappa
B2: VH SEQ ID NO 530 / VL SEQ ID NO 342 (antibody, IgG4, V domains shown)
VH: B1 VH with P111Y
VL: B1 VL with E42Q, T69R, Q100A, I106L
notes: as for B1
B3: VH SEQ ID NO 522 / VL SEQ ID NO 478 (antibody, IgG4, V domains shown)
VH: B1 VH
VL: B1 VL with I29V, E42Q, T51A, N90Q
notes: as for B1
B4: VH SEQ ID NO 530 / VL SEQ ID NO 438 (antibody, IgG4, V domains shown)
VH: B1 VH with P111Y
VL: B1 VL with I29V, H34A, E42Q, T51A, F83V
notes: as for B1
B5: VH SEQ ID NO 522 / VL SEQ ID NO 342 (antibody, IgG4, V domains shown)
VH: B1 VH
VL: B1 VL with E42Q, T69R, Q100A, I106L
notes: as for B1
B6: VH SEQ ID NO 522 / VL SEQ ID NO 430 (antibody, IgG4, V domains shown)
VH: B1 VH
VL: B1 VL with I29V, H34A, E42Q, T51A, A84G
notes: as for B1
B7: VH SEQ ID NO 522 / VL SEQ ID NO 382 (antibody, IgG4, V domains shown)
VH: B1 VH
VL: B1 VL with I29L, T51A
notes: as for B1
B8: VH SEQ ID NO 530 / VL SEQ ID NO 334 (antibody, IgG4, V domains shown)
VH: B1 VH with P111Y
VL: B1 VL with E42Q, T51A
notes: as for B1
B9: VH SEQ ID NO 522 / VL SEQ ID NO 350 (antibody, IgG4, V domains shown)
VH: B1 VH
VL: B1 VL with E42Q, Q100A, I106L
notes: as for B1
B10: VH SEQ ID NO 530 / VL SEQ ID NO 390 (antibody, IgG4, V domains shown)
VH: B1 VH with P111Y
VL: B1 VL with I29V, H34A, T51A
notes: as for B1
B11: VH SEQ ID NO 530 / VL SEQ ID NO 398 (antibody, IgG4, V domains shown)
VH: B1 VH with P111Y
VL: B1 VL with I29V, H34A
notes: as for B1
B12: VH SEQ ID NO 530 / VL SEQ ID NO 318 (antibody, IgG4, V domains shown)
VH: B1 VH with P111Y
VL: B1 VL
notes: as for B1
B13: VH SEQ ID NO 522 / VL SEQ ID NO 406 (antibody, IgG4, V domains shown)
VH: B1 VH
VL: B1 VL with I29V, H34A, E42Q, T51A, Q100A
notes: as for B1
B14: VH SEQ ID NO 530 / VL SEQ ID NO 406 (antibody, IgG4, V domains shown)
VH: B1 VH with P111Y
VL: B1 VL with I29V, H34A, E42Q, T51A, Q100A
notes: as for B1
B15: VH SEQ ID NO 522 / VL SEQ ID NO 398 (antibody, IgG4, V domains shown)
VH: B1 VH
VL: B1 VL with I29V, H34A
notes: as for B1
B16: VH SEQ ID NO 530 / VL SEQ ID NO 446 (antibody, IgG4, V domains shown)
VH: B1 VH with P111Y
VL: B1 VL with I29V, H34A, E42Q
notes: as for B1
B17: VH SEQ ID NO 530 / VL SEQ ID NO 366 (antibody, IgG4, V domains shown)
VH: B1 VH with P111Y
VL: B1 VL with I29L, H34A, T51A
notes: as for B1
B18: VH SEQ ID NO 522 / VL SEQ ID NO 502 (antibody, IgG4, V domains shown)
VH: B1 VH
VL: B1 VL with I29V, E42Q
notes: as for B1
B19: VH SEQ ID NO 530 / VL SEQ ID NO 358 (antibody, IgG4, V domains shown)
VH: B1 VH with P111Y
VL: B1 VL with E42Q
notes: as for B1
B20: VH SEQ ID NO 522 / VL SEQ ID NO 446 (antibody, IgG4, V domains shown)
VH: B1 VH
VL: B1 VL with I29V, H34A, E42Q
notes: as for B1
B21: VH SEQ ID NO 522 / VL SEQ ID NO 334 (antibody, IgG4, V domains shown)
VH: B1 VH
VL: B1 VL with E42Q, T51A
notes: as for B1
B22: VH SEQ ID NO 522 / VL SEQ ID NO 358 (antibody, IgG4, V domains shown)
VH: B1 VH
VL: B1 VL with E42Q
notes: as for B1
B23: VH SEQ ID NO 522 / VL SEQ ID NO 390 (antibody, IgG4, V domains shown)
VH: B1 VH
VL: B1 VL with I29V, H34A, T51A
notes: as for B1
B24: VH SEQ ID NO 530 / VL SEQ ID NO 454 (antibody, IgG4, V domains shown)
VH: B1 VH with P111Y
VL: B1 VL with I29V, T51A
notes: as for B1
B25: VH SEQ ID NO 530 / VL SEQ ID NO 374 (antibody, IgG4, V domains shown)
VH: B1 VH with P111Y
VL: B1 VL with I29L, H34A, E42Q
notes: as for B1
B26: VH SEQ ID NO 530 / VL SEQ ID NO 382 (antibody, IgG4, V domains shown)
VH: B1 VH with P111Y
VL: B1 VL with I29L, T51A
notes: as for B1
B27: VH SEQ ID NO 530 / VL SEQ ID NO 350 (antibody, IgG4, V domains shown)
VH: B1 VH with P111Y
VL: B1 VL with E42Q, Q100A, I106L
notes: as for B1
B28: VH SEQ ID NO 522 / VL SEQ ID NO 374 (antibody, IgG4, V domains shown)
VH: B1 VH
VL: B1 VL with I29L, H34A, E42Q
notes: as for B1
B29: VH SEQ ID NO 522 / VL SEQ ID NO 366 (antibody, IgG4, V domains shown)
VH: B1 VH
VL: B1 VL with I29L, H34A, T51A
notes: as for B1
B30: VH SEQ ID NO 530 / VL SEQ ID NO 422 (antibody, IgG4, V domains shown)
VH: B1 VH with P111Y
VL: B1 VL with I29V, H34A, E42Q, T51A, N90Q
notes: as for B1
B31: VH SEQ ID NO 530 / VL SEQ ID NO 310 (antibody, IgG4, V domains shown)
VH: B1 VH with P111Y
VL: B1 VL with H34A, E42Q, T51A
notes: as for B1
B32: VH SEQ ID NO 522 / VL SEQ ID NO 326 (antibody, IgG4, V domains shown)
VH: B1 VH
VL: B1 VL with A84G, Q100A, I106L
notes: as for B1
B33: VH SEQ ID NO 522 / VL SEQ ID NO 414 (antibody, IgG4, V domains shown)
VH: B1 VH
VL: B1 VL with I29V, H34A, E42Q, T51A
notes: as for B1
B34: VH SEQ ID NO 522 / VL SEQ ID NO 470 (antibody, IgG4, V domains shown)
VH: B1 VH
VL: B1 VL with I29V, E42Q, T51A
notes: as for B1
B35: VH SEQ ID NO 530 / VL SEQ ID NO 326 (antibody, IgG4, V domains shown)
VH: B1 VH with P111Y
VL: B1 VL with A84G, Q100A, I106L
notes: as for B1
B36: VH SEQ ID NO 522 / VL SEQ ID NO 462 (antibody, IgG4, V domains shown)
VH: B1 VH
VL: B1 VL with I29V, E42Q, T51A, Q100A
notes: as for B1
B37: VH SEQ ID NO 522 / VL SEQ ID NO 422 (antibody, IgG4, V domains shown)
VH: B1 VH
VL: B1 VL with I29V, H34A, E42Q, T51A, N90Q
notes: as for B1
B38: VH SEQ ID NO 522 / VL SEQ ID NO 454 (antibody, IgG4, V domains shown)
VH: B1 VH
VL: B1 VL with I29V, T51A
notes: as for B1
B39: VH SEQ ID NO 522 / VL SEQ ID NO 438 (antibody, IgG4, V domains shown)
VH: B1 VH
VL: B1 VL with I29V, H34A, E42Q, T51A, F83V
notes: as for B1
B40: VH SEQ ID NO 530 / VL SEQ ID NO 414 (antibody, IgG4, V domains shown)
VH: B1 VH with P111Y
VL: B1 VL with I29V, H34A, E42Q, T51A
notes: as for B1
B41: VH SEQ ID NO 522 / VL SEQ ID NO 486 (antibody, IgG4, V domains shown)
VH: B1 VH
VL: B1 VL with I29V, E42Q, T51A, A84G
notes: as for B1
B42: VH SEQ ID NO 530 / VL SEQ ID NO 430 (antibody, IgG4, V domains shown)
VH: B1 VH with P111Y
VL: B1 VL with I29V, H34A, E42Q, T51A, A84G
notes: as for B1
B43: VH SEQ ID NO 522 / VL SEQ ID NO 494 (antibody, IgG4, V domains shown)
VH: B1 VH
VL: B1 VL with I29V, E42Q, T51A, F83V
notes: as for B1

Biological target: T1, recombinant human activated Factor VII …
Assay: BLI (Fortebio)
Method: All steps were performed in running buffer (20 mM HEPES buffer (pH 7.4), 150 mM NaCl, 5 mM CaCl2, 0.03% Tween 20, 1 mg/ml IgG-free BSA) at […] Antibodies were captured on anti-human tips (AHC, Fortebio) for 3 min at a concentration of 10 ug/ml. This was followed by a 3 min incubation to establish a baseline. Following this, association was monitored for 3 min using four different concentrations of VIIa (25 nm, 50 nM, 100 nM, and 200 nM), followed by a 3 mi dissociation. Sensorgrams were analysed using Fortebio data analysis software.

| Kd | Binder |
| --- | --- |
| 0.97 nM | B1 |
| 1.2 nM | B2 |
| 1.6 nM | B3 |
| 4.6 nM | B4 |
| 1.4 nM | B5 |
| 12 nM | B6 |
| 1.3 nM | B7 |
| 1.2 nM | B8 |
| 1.3 nM | B9 |
| 4.1 nM | B10 |
| 7.1 nM | B11 |
| 1.2 nM | B12 |
| 17 nM | B13 |
| 4.3 nM | B14 |
| 320 nM | B15 |
| 7.9 nM | B16 |
| 3.2 nM | B17 |
| 1.4 nM | B18 |
| 1 nM | B19 |
| 170 nM | B20 |
| 1.2 nM | B21 |
| 1.3 nM | B22 |

| Kd | Binder |
| --- | --- |
| 15 nM | B23 |
| 1.1 nM | B24 |
| 4.2 nM | B25 |
| 1.1 nM | B26 |
| 0.96 nM | B27 |
| 14 nM | B28 |
| 14 nM | B29 |
| 26 nM | B30 |
| 2.5 nM | B31 |
| 0.81 nM | B32 |
| 31 nM | B33 |
| 0.96 nM | B34 |
| 1.1 nM | B35 |
| 1.2 nM | B36 |
| 110 nM | B37 |
| 1 nM | B38 |
| 57 nM | B39 |
| 4.5 nM | B40 |
| 1.5 nM | B41 |
| 4.9 nM | B42 |
| 1.7 nM | B43 |
